Measured values published in US20200407433A1 (REMD BIOTHERAPEUTICS, published 2020).

T1: human Calcitonin Gene-Related Peptide (CGRP) (human, not fully specified)
T1 peptide: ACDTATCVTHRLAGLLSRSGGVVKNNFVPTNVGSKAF


Columns and labels:
[1] = target: T1, human Calcitonin Gene-Related Peptide …; assay: cell-based or functional assay
[2] = target: T1, human Calcitonin Gene-Related Peptide …; assay: cell-based or functional assay
[3] = target: T1, human Calcitonin Gene-Related Peptide …; assay: ELISA, human CGRP binding
Rodent CGRP = target: T2, Rodent CGRP (rodent (murine)); assay: ELISA, rodent CGRP binding
T2 construct: also called murine CGRP

[4] = target: T1, human Calcitonin Gene-Related Peptide …; assay: SPR Biacore T200; antibody amine-coupled to chip, CGRP as analyte
Method: The binding affinity between the chimeric IgG4 to antigen CGRP was determined using a Surface Plasmon Resonance (SPR) biosensor, Biacore T200 (GE Healthcare). 30B8G9B11 (“A3”) and chimeric IgG4 were each immobilized on the sensor chip through an amine coupling method. Antigen CGRP protein was used as analyte. The data of dissociation (kd) and association (kₐ) rate constants were obtained using Biacore T200 evaluation software. The equilibrium dissociation constants (KD) were calculated from the ratio of kd over kₐ.

[5] = target: T1, human Calcitonin Gene-Related Peptide …; assay: SPR Biacore 8k; antibody amine-coupled to chip, CGRP as analyte
Method: The recombinant IgGs secreted to the medium and were purified using protein A affinity chromatography. Evaluating from the SDS-PAGE, the purity of humanized IgGs were all over 90%. The affinities of purified antibodies binding to CGRP were determined using a Surface Plasmon Resonance (SPR) biosensor, Biacore 8k. Antibodies were immobilized on the sensor chip through amine coupling method. Antigen CGRP was used as the analyte. The data of dissociation (kd) and association (ka) rate constants were obtained using Biacore 8k evaluation software. The equilibrium dissociation constants (KD) were calculated from the ratio of kd over ka.

T2 sequence (Q99JA0 83-119): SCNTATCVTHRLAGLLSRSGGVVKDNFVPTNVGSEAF

Row | Binder | SK-N-MC CGRP IC50 (pM) [1] [pM] | SK-N-MC IC50 (pM) [2] [pM] | EC50 [3] [pM] | EC50 (Rodent CGRP) [pM] | Kd [4] [pM] | koff [4] [s⁻¹] | kon [4] [M⁻¹ s⁻¹] | Kd [5] [pM] | koff [5] [s⁻¹] | kon [5] [M⁻¹ s⁻¹]
1 | murine mAb 30B8G9B11 (antibody, mouse IgG2a, V domains shown, Murine IgG2a, kappa; also called A3; Murine A3) VH: EVQLQQSGPELVKPGASVKISCKASGYTFTDYYMNWVKQSHGKSLEWIGDVNPNNGGTHYNQKFKGKATLTVDKSSSTAYMELRSLTSEDSAVYYCASITIVPVYFDFWGQGTTLTVSS VL: DIVMTQSQKFMSTSVGDRVSVTCKASQNVGPNVAWYRQKPGQSPKALIYSASYRYSGVPDRFTGSGSGTDFTLTISNVQSEDLADYICQQYNYYPYTFGGGTKLEIK | 152 | 152 | 70 | 296 | 2.92 | 1.56e-05 | 5.33e+06 |  |  | 
2 | murine-human chimeric IgG4 derived from murine antibody A3 (antibody, V domains shown, also called chimeric antibody) VH: EVQLQQSGPELVKPGASVKISCKASGYTFTDYYMNWVKQSHGKSLEWIGDVNPNNGGTHYNQKFKGKATLTVDKSSSTAYMELRSLTSEDSAVYYCASITIVPVYFDFWGQGTTLTVSS VL: DIVMTQSQKFMSTSVGDRVSVTCKASQNVGPNVAWYRQKPGQSPKALIYSASYRYSGVPDRFTGSGSGTDFTLTISNVQSEDLADYICQQYNYYPYTFGGGTKLEIKR |  | 152 |  |  | 2.4 | 1.51e-05 | 6.28e+06 | 3.53 | 1.19e-05 | 3.37e+06
3 | REMD 128 (antibody, human IgG4 S228P, kappa, V domains shown, Humanized full-length IgG (IgG4 constant region, kappa); also called IgG 10 (H3/L2); 10 (H3/L2)) VH: QVQLVQSGAEVVKPGASVKVSCKASGYTFTDYYMNWVKQAPGQGLEWIGDVNPNNGGTHYNQKFKGRVTLTVDTSISTAYMELSRLRSDDTAVYYCASITIVPVYFDFWGQGTLVTVSS VL: DIQLTQSPSFLSASVGDRVTITCKASQNVGPNVAWYRQKPGKAPKALIYSASYRYSGVPSRFSGSGSGTEFTLTISSLQPEDFATYICQQYNYYPYTFGQGTKLEIKR |  | 49.2 |  |  |  |  |  | 1.37 | 5.79e-06 | 4.23e+06
4 | REMD 128.1 (antibody, human IgG4 S228P, kappa, V domains shown, Humanized full-length IgG (IgG4 constant region, kappa); also called IgG 11 (H3/L3); 11 (H3/L3)) VH: QVQLVQSGAEVVKPGASVKVSCKASGYTFTDYYMNWVKQAPGQGLEWIGDVNPNNGGTHYNQKFKGRVTLTVDTSISTAYMELSRLRSDDTAVYYCASITIVPVYFDFWGQGTLVTVSS VL: DIQLTQSPSFLSTSVGDRVTITCKASQNVGPNVAWYRQKPGKSPKALIYSASYRYSGVPSRFSGSGSGTEFTLTISSLQPEDFATYICQQYNYYPYTFGQGTKLEIKR |  | 38.9 |  |  |  |  |  | 1.57 | 7.61e-06 | 4.86e+06
5 | REMD 128.2 (antibody, human IgG4 S228P, kappa, V domains shown, Humanized full-length IgG (IgG4 constant region, kappa); also called IgG 15 (H4/L3); 15 (H4/L3)) VH: QVQLVQSGAEVVKPGASVKISCKASGYTFTDYYMNWVKQAPGQGLEWIGDVNPNNGGTHYNQKFKGRATLTVDTSISTAYMELSRLRSDDTAVYYCASITIVPVYFDFWGQGTLLTVSS VL: DIQLTQSPSFLSTSVGDRVTITCKASQNVGPNVAWYRQKPGKSPKALIYSASYRYSGVPSRFSGSGSGTEFTLTISSLQPEDFATYICQQYNYYPYTFGQGTKLEIKR |  | 60.4 |  |  |  |  |  | 1.52 | 7.57e-06 | 4.97e+06
6 | REMD 128.3 (antibody, human IgG4 S228P, kappa, V domains shown, Humanized full-length IgG (IgG4 constant region, kappa); also called IgG 14 (H4/L2); 14 (H4/L2)) VH: QVQLVQSGAEVVKPGASVKISCKASGYTFTDYYMNWVKQAPGQGLEWIGDVNPNNGGTHYNQKFKGRATLTVDTSISTAYMELSRLRSDDTAVYYCASITIVPVYFDFWGQGTLLTVSS VL: DIQLTQSPSFLSASVGDRVTITCKASQNVGPNVAWYRQKPGKAPKALIYSASYRYSGVPSRFSGSGSGTEFTLTISSLQPEDFATYICQQYNYYPYTFGQGTKLEIKR |  | 59.8 |  |  |  |  |  | 1.54 | 7.01e-06 | 4.55e+06
7 | murine mAb 6G5C8C4 (antibody, mouse IgG2a, V domains shown, Murine IgG2a, kappa; also called A1; 6G5C8C4 ("A1")) VH: EVQLQQSGPELVKPGASVKISCKASGYTFTDYYMNWVKQSHGKSLEWIGDINPNNGGTTYNQKFKGKATLTVDKSSTTAYMELRSLTSEDSAVYYCAVITIVPYYFDYWGQGTTLTVSS VL: DIVMTQSQKFMSTSVGDRVSVTCKASQNVGSNVAWYQQKPGQSPKALIYSASFRYSRVPDRFSGSGSGTDFTLTISNVQSEDLADYFCQQYNSYPYTFGAGTKLELK | 101 |  | 100 | 361 |  |  |  |  |  | 
8 | murine mAb 24G7B10G2 (antibody, mouse IgG2a, V domains shown, Murine IgG2a, kappa; also called A2; 24G7B10G2 ("A2")) VH: EVQLLQSGPELMKPGTSVKISCKASGYTFTDYYMNWVKQSHGKSLEWIGDVNPNNGDTTYNQKFKGKATLTIDKSSSTAYMELRSLTSEDSAVYYCASITIVPLYFDFWGQGTTLAVSS VL: DIVMTQSQKFMSTSVGDRVSVTCKASQNVGINVAWYQQKPGQSPKALLYSASYRYSGVPDRFTGSGSGTDFTLTISNVKSGDLAEYFCQQYNTYPYTFGGGTKLEIK | 195 |  | 80 | 328 |  |  |  |  |  | 
